Where two headings read alike, the source gives them in different places.

In assay [1] the target is T1, human CD123 (full-length, on cells) (human, UniProt P26951 19-378).
T1 construct: also called CD123-FL; interleukin-3 receptor alpha chain
The experiment in a line: flow cytometry blocking assay, sdAb titrated on CD123-expressing HEK-293 cells with a fixed amount of IL-3-mFc. As to the method: (§1) Certain CD123-binding sdAbs were tested for the ability to block CD123 binding to IL-3 by titrating the sdAb onto CD123 expressing HEK-293 cells in the presence of a fixed amount of recombinant IL-3-mFc. Bound IL-3 was detected by flow cytometry using fluorophore conjugated anti-mouse IgG specific secondary antibody.
For orientation: In flow cytometry, cells or beads pass a laser one at a time.

For assay [2], the target named is T1, human CD123 (full-length, on cells). The experiment in a line: flow cytometry, HEK 293 cells transfected with full-length CD123 (CD123-FL); Median RL-1H. As to the method:
(§2) Binding of sdAbs to human CD123 was assessed by flow cytometry. […] HEK 293 cells were transiently transfected with a plasmid encoding full-length CD123 (UniProt Accession No. P26951-1; mature form, SEQ ID NO: 1) and used as the positive cell line in FIGS. 2A to 2M, and untransfected HEK 293 cells were used as CD123-negative cells. In FIG. 2N, Molm-13 cells, which express CD123, were used as the positive cell line. Each cell type was plated at 30,000 cells/well in FACS buffer (PBS 1% BSA, 0.1% NaN₃ pH 7.4) on a 96-well round-bottom plate. The sdAbs were diluted in FACS buffer in a 3-fold, 11 point serial dilution. The sdAb dilutions were added to the plated cells, and assay plates were incubated for 30 minutes at 4° C. After washing twice in 150 μL of FACS buffer, cells in each well were resuspended in 100 μL of 1:2000 Alexa Fluor 647-conjugated Anti-Human IgG secondary diluted in FACS buffer and incubated at 4° C. for 30 minutes. The cells were washed twice more, then bound antibody was detected by flow cytometry.
(§3) Flow cytometric analysis was performed on an Intellicyte iQue Plus and fluorescence was plotted as median fluorescence intensity. The apparent affinity (Kd, nM) was determined using one site binding non-linear regression in PRISM graph software.
Target sequence in this assay (P26951 19-378): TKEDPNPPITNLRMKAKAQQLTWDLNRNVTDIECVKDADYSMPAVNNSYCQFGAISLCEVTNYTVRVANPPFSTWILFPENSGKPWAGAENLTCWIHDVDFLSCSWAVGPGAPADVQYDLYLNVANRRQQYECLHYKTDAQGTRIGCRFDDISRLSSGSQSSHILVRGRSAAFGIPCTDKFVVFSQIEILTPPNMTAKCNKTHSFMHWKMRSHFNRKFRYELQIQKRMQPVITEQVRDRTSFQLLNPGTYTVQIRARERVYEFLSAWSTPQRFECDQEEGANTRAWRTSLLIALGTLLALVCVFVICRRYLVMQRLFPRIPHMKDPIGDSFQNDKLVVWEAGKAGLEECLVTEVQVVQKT

The target of assay [3] is T2, CD123-his.
T2 construct: also called histidine tagged human CD123; His-tagged CD123 ECD
T2 extracellular domain with C-terminal His tag: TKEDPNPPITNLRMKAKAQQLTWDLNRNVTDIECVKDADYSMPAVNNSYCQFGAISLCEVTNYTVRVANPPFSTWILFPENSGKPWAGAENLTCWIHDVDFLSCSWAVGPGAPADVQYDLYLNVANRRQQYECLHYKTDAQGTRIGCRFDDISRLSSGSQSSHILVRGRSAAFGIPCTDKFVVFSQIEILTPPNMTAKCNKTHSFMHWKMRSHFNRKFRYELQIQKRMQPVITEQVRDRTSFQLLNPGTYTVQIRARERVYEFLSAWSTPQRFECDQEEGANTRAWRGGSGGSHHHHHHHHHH
The experiment in a line: BLI, CD123-his on Ni-NTA sensors preloaded with hzA5v2, second sdAb 100 nM. As to the method: (§4) The epitopes of single domain antibodies (sdAbs) that comprise VHH domains that bind CD123 were compared using Bio-Layer Interferometry. 5 ug/mL of histidine tagged human CD123 was immobilized on Nickel-nitrilotriacetic acid (Ni-NTA) coated capture sensors. 100 nM of one sdAb was then loaded onto the CD123 antigen and allowed to come to equilibrium. The sensors were then transferred into 100 nM of a second sdAb.
In general terms: Biolayer interferometry detects binding as a change in optical thickness at a sensor tip.

Assay [4] addresses T1, human CD123 (full-length, on cells). Nature of the assay: flow cytometry on HEK 293 cells transfected with full-length CD123; apparent Kd, one-site fit. As for the experimental part: as §2, §3
Target sequence in this assay (P26951 19-378): as the sequence (P26951 19-378) above
For assay [5] the target is unchanged. The experiment in a line: flow cytometry, Molm-13 cells expressing CD123; Median RL1-H. As for the experimental part:
as §2, §3

Assay [6] has the same target. Nature of the assay: flow cytometry on Molm-13 cells, which express CD123; apparent Kd, one-site fit; apparent Kd by flow cytometry on CD123-expressing cells; the places shown do not name the cell line for this sdAb. As to the method: as §2, §3
Assay [7] has the same target. The experiment in a line: flow cytometry blocking assay, sdAb titrated on CD123-expressing HEK-293 cells with a fixed amount of IL-3-mFc. As for the experimental part: as §1
This is another data set of the same source.

The target in assay [8] is T2, CD123-his. The experiment in a line: BLI, CD123-his on Ni-NTA sensors preloaded with hz1B11v28, second sdAb 100 nM. As for the experimental part:
as §4

B1: hz1F5v1-IgG1 (Fc fusion)
chain: EVQLVESGGGEVQPGGSLRLSCAASGRAINMYAMGWFRQAPGKEREFVAAINWNGAYTQYAESVKGRFTISRDNAKNTLYLQMSSLRAEDTAVYYCSADADYNTYVSPNKRVSYWGQGTLVTVDKTHTCPPCPAPGGPSVFLFPPKPKDTLMISRTPEVTCVVVDVSHEDPEVKFNWYVDGVEVHNAKTKPREEQYNSTYRVVSVLTVLHQDWLNGKEYKCKVSNKALPAPIEKTISKAKGQPREPQVYTLPPSRDELTKNQVSLTCLVKGFYPSDIAVEWESNGQPENNYKTTPPVLDSDGSFFLYSKLTVDKSRWQQGNVFSCSVMHEALHNHYTQKSLSLSPGK
Take B1: the “IC50 (read off the curve)” value in assay [1] is approximately 1 nM. Further, the “EC50 (read off the curve)” value in assay [2] was approximately 0.6 nM. Further, in assay [3], the binding result was “binds”. Further, the Kd in assay [4] turned out to be 0.58 nM.

B2: hz1F5v6-IgG1 (Fc fusion)
chain: EVQLVESGGGEVQPGGSLRLSCAASGRAINMYAMGWFRQAPGKEREFVAAINWNAAYTQYAESVKGRFTISRDNAKNTLYLQMSSLRAEDTAVYYCSADADYNTYVSPNKRVSYWGQGTLVTVKPDKTHTCPPCPAPGGPSVFLFPPKPKDTLMISRTPEVTCVVVDVSHEDPEVKFNWYVDGVEVHNAKTKPREEQYNSTYRVVSVLTVLHQDWLNGKEYKCKVSNKALPAPIEKTISKAKGQPREPQVYTLPPSRDELTKNQVSLTCLVKGFYPSDIAVEWESNGQPENNYKTTPPVLDSDGSFFLYSKLTVDKSRWQQGNVFSCSVMHEALHNHYTQKSLSLSPGK
With B2, the “EC50 (read off the curve)” value in assay [5] was approximately 1 nM. In assay [6], the Kd turned out to be 1.36 nM.

B3: C5-IgG1 (Fc fusion)
chain: QVTLRESGGGLVQAGGSLRLSCKGSGRAINTYAMGWFRQAPGKEREFVAAISWNGGHTRYADSVQGRFAISRDNADNTMYLQMNSLKPEDTAVYHCAAYSDYHRIATMEADADSWGQGTQVTVDKTHTCPPCPAPGGPSVFLFPPKPKDTLMISRTPEVTCVVVDVSHEDPEVKFNWYVDGVEVHNAKTKPREEQYNSTYRVVSVLTVLHQDWLNGKEYKCKVSNKALPAPIEKTISKAKGQPREPQVYTLPPSRDELTKNQVSLTCLVKGFYPSDIAVEWESNGQPENNYKTTPPVLDSDGSFFLYSKLTVDKSRWQQGNVFSCSVMHEALHNHYTQKSLSLSPGK
notes: also called sdAb C5
Regarding B3, the “IC50 (read off the curve)” value is approximately 2 nM in assay [7] and approximately 0.7 nM in assay [1]. Further, the concentration for a half-maximal effect (EC50 (read off the curve)) in assay [2] was approximately 1 nM. In addition, the binding result in assay [3] is on record as “binds”.

B4: hz4F2v3-IgG1 (Fc fusion)
chain: EVQLVESGGGEVQPGGSLRLSCAASGRTVSNYPMAWFRQAPGKEREFVAHISWSGITSILNSVNDRFTISRDNAKNTIYLQMSSLRAEDTAVYYCAAAQRPTAGPKGPFGYWGQGTLVTVDKTHTCPPCPAPGGPSVFLFPPKPKDTLMISRTPEVTCVVVDVSHEDPEVKFNWYVDGVEVHNAKTKPREEQYNSTYRVVSVLTVLHQDWLNGKEYKCKVSNKALPAPIEKTISKAKGQPREPQVYTLPPSRDELTKNQVSLTCLVKGFYPSDIAVEWESNGQPENNYKTTPPVLDSDGSFFLYSKLTVDKSRWQQGNVFSCSVMHEALHNHYTQKSLSLSPGK
notes: also called hz4F2v3 sdAb
As to B4, in assay [8], the binding result was “binds”. Further, in assay [2], the 50% effective concentration (EC50 (read off the curve)) was 2 to 3 nM. Further, in assay [4], the Kd turned out to be 2.4 nM.

Usually EC50 (read off the curve) stands for the midpoint of the concentration-response curve.

For the origin of these results see patent publication US20230065306A1 (INHIBRX, published 2023).
